IntAct's records for PubMed 29039417

B1: BBSome complex member BBS1 (Homo sapiens), Q8NFJ9 (parent)
chain: MAAASSSDSDACGAESNEANSKWLDAHYDPMANIHTFSACLALADLHGDGEYKLVVGDLGPGGQQPRLKVLKGPLVMTESPLPALPAAAATFLMEQHEPRTPALALASGPCVYVYKNLRPYFKFSLPQLPPNPLEQDLWNQAKEDRIDPLTLKEMLESIRETAEEPLSIQSLRFLQLELSEMEAFVNQHKSNSIKRQTVITTMTTLKKNLADEDAVSCLVLGTENKELLVLDPEAFTILAKMSLPSVPVFLEVSGQFDVEFRLAAACRNGNIYILRRDSKHPKYCIELSAQPVGLIRVHKVLVVGSTQDSLHGFTHKGKKLWTVQMPAAILTMNLLEQHSRGLQAVMAGLANGEVRIYRDKALLNVIHTPDAVTSLCFGRYGREDNTLIMTTRGGGLIIKILKRTAVFVEGGSEVGPPPAQAMKLNVPRKTRLYVDQTLREREAGTAMHRAFQTDLYLLRLRAARAYLQALESSLSPLSTTAREPLKLHAVVQGLGPTFKLTLHLQNTSTTRPVLGLLVCFLYNEALYSLPRAFFKVPLLVPGLNYPLETFVESLSNKGISDIIKVLVLREGQSAPLLSAHVNMPGSEGLAAA
partner: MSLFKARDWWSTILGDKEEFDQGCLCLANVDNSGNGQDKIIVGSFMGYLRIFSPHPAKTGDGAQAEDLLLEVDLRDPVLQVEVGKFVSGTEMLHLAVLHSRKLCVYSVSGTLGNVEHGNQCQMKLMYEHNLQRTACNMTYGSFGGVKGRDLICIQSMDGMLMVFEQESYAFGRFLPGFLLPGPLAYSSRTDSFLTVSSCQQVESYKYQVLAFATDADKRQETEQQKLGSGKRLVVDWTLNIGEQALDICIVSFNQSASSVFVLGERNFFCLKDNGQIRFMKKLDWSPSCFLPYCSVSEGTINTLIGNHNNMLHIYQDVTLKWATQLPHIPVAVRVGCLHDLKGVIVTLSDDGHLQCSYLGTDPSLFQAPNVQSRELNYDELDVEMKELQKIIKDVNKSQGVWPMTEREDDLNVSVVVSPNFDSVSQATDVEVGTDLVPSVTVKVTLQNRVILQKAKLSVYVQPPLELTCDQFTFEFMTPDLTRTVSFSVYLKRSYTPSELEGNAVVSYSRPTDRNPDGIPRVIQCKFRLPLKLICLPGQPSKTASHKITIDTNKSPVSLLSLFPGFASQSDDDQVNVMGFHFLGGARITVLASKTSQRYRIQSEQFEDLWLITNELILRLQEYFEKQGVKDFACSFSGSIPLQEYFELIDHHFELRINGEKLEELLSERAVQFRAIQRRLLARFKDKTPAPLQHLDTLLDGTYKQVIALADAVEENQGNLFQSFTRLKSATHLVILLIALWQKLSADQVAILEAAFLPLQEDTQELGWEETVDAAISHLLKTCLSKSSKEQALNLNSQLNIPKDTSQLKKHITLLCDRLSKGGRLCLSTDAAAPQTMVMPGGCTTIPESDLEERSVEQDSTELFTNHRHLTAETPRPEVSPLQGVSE

Variants of: B1
Conditions: with pthb1_human BBS9, Q3SYG4

Variant	effect of a mutation on the interaction
R512K	with no effect
R512E	with no effect
R512A	with no effect
T511E	with no effect
T511K	with no effect
T511A	with no effect
N507A	with no effect
N507E	disrupting interaction strength
N507K	with no effect
T510A	with no effect
T510E	with no effect
T510K	with no effect
N524K	with no effect
N524E	with no effect
N524A	disrupting interaction strength
E525A	with no effect
E525K	with no effect
C520A	with no effect
C520K	with no effect
C520E	with no effect
V519A	with no effect
V519K	disrupting interaction strength
V519E	disrupting interaction strength
V514K	with no effect
V514A	with no effect
V514E	with no effect

Variant	effect of a mutation on the interaction
Y523E	disrupting interaction strength
Y523A	disrupting interaction strength
Y523K	with no effect
A526K	with no effect
A526E	with no effect
H504E	with no effect
H504K	with no effect
H504A	with no effect
G516A	disrupting interaction strength
G516E	with no effect
G516K	with no effect
L505A	with no effect
L505K	disrupting interaction strength
L505E	disrupting interaction strength
L505P	disrupting interaction strength
L517K	disrupting interaction strength
L517E	disrupting interaction strength
L517A	with no effect
P513A	with no effect
P513E	with no effect
P513K	with no effect
Y528E	disrupting interaction strength
Y528C	disrupting interaction strength
Y528A	disrupting interaction strength
L515A	with no effect
L515E	with no effect

Variant	effect of a mutation on the interaction
L515K	with no effect
Q506K	with no effect
Q506E	with no effect
Q506A	with no effect
T508E	with no effect
T508A	with no effect
T508K	with no effect
L527K	with no effect
L527E	with no effect
L527P	disrupting interaction strength
L527A	with no effect
S509K	with no effect
S509L	disrupting interaction strength
S509E	with no effect
S509A	with no effect
F521E	disrupting interaction strength
F521A	with no effect
F521K	disrupting interaction strength
L518K	with no effect
L518A	with no effect
L518E	with no effect
L518P	disrupting interaction strength
L522K	with no effect
L522E	with no effect
L522A	with no effect

The remaining lines, values ahead:

effect of a mutation on the interaction	Variant
disrupting interaction strength	V552E
disrupting interaction strength	V552K
with no effect	V552A
with no effect	R532A
with no effect	R532E
with no effect	R532K
with no effect	A533K
with no effect	A533E
with no effect	T550K
with no effect	T550E
with no effect	T550A
with no effect	P547K
with no effect	P547E
with no effect	P547A
with no effect	F535E
with no effect	F535K
with no effect	F535A
with no effect	E553K
with no effect	E553A
with no effect	F551K
with no effect	F551E
with no effect	F551A

effect of a mutation on the interaction	Variant
with no effect	L548K
disrupting interaction strength	L548E
with no effect	L548A
with no effect	N545K
with no effect	N545E
with no effect	N545A
disrupting interaction strength	L530N
disrupting interaction strength	L530D
disrupting interaction strength	L530T
disrupting interaction strength	L530E
disrupting interaction strength	L530A
disrupting interaction strength	L530Q
disrupting interaction strength	L530K
disrupting interaction strength	L530R
disrupting interaction strength	L530V
with no effect	Y546A
disrupting interaction strength	Y546E
with no effect	Y546K
with no effect	P531E
with no effect	P531K
with no effect	P531A
with no effect	K536A

effect of a mutation on the interaction	Variant
with no effect	K536E
with no effect	G543A
with no effect	G543K
with no effect	G543E
with no effect	L555E
with no effect	L555K
with no effect	L555A
disrupting interaction strength	P538L
with no effect	P538K
with no effect	P538A
with no effect	P538E
with no effect	V541K
with no effect	V541A
with no effect	V541E
disrupting interaction strength	V537E
disrupting interaction strength	V537K
with no effect	V537A
disrupting interaction strength	P542K
with no effect	P542E
with no effect	P542A
disrupting interaction strength	Y528K
with no effect	S554A

effect of a mutation on the interaction	Variant
disrupting interaction strength	S554E
with no effect	S554K
disrupting interaction strength	L539E
disrupting interaction strength	L539K
disrupting interaction strength	L539A
with no effect	E549A
with no effect	E549K
with no effect	L544A
with no effect	L544K
with no effect	L544E
disrupting interaction strength	L540E
disrupting interaction strength	L540K
with no effect	L540A
with no effect	F534K
with no effect	F534A
with no effect	F534E
with no effect	S529E
with no effect	S529A
with no effect	S529K

Variants of: B1
Conditions: with pthb1_human BBS9, Q3SYG4
Remark: another data set of the same source

effect of a mutation on the interaction	Variant
with no effect	N507E
disrupting interaction strength	Y546K

Variants of: B1
Conditions: with pthb1_human BBS9, Q3SYG4
Remark: another data set of the same source

effect of a mutation on the interaction	Variant
with no effect	L548E
